Target: T1, DNAJB1-PRKACA fusion protein peptide on HLA-A*68:02 (human)
T1 peptide: EIFDRYGEEV
Assay: multimer staining
Description: Jurkat cells were engineered to express the FLC-P8R-4 TCR.

binding result: recognises
B1: P9R-4 (TCR)
alpha TRAV16*01 TRAJ4*01 CDR3: CALDMFSGGYNKLIF
beta TRBV15*01 TRBJ2-7*01 CDR3: CATSRVKTSGGYEQYF
